Results: patent US20190048071A1 (MorphoSys, published 2019)
Positions count from the first letter of the chain named. Where two headings read alike, the source gives them in different places.

T1: Human IL-17C (human, UniProt Q9P0M4 19-197, biotinylated in the receptor inhibition assay (ECL biotinylation module))
T1 construct: Recombinant protein, purchased or made in-house (Novus #NBP1-42910 in the cell assays); also called hIL-17C; interleukin 17C
T1 sequence: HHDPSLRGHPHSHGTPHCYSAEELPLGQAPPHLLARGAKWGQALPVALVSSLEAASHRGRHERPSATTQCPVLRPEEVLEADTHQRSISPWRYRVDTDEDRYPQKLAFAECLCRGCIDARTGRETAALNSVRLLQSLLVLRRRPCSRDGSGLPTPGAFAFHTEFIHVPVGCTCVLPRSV

T2: Cynomolgus monkey IL-17C (cynomolgus monkey, UniProt Q9P0M4 19-197 (human entry), limits assumed, biotinylated in the receptor inhibition assay (ECL biotinylation module))
T2 construct: Produced in-house; also called cynomolgus IL-17C
T2 chain: T1 sequence with H2Q, S5F, S12T, H17R, S56G, G59R, E62D, T67A, A119P, H166R

T3: Mouse IL-17C (mouse, UniProt Q8K4C5 17-194, biotinylated in the receptor inhibition assay (ECL biotinylation module))
T3 construct: Recombinant protein (R&D Systems #2306-ml-025 in the cell assays); also called mIL-17C
T3 sequence: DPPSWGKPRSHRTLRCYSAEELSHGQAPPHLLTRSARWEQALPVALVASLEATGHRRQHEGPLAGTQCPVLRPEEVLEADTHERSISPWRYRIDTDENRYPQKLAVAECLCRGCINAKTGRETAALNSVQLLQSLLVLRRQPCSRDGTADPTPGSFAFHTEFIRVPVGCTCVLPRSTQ

B1: MAB#1 IgG1 (antibody, V domains shown)
VH: EVQLLESGGGLVQPGGSLRLSCAASGFTVSDYAMHWVRQAPGKGLEWVSYIGGVGEGTQYAESVKGRFTISRDNSKNTLYLQMNSLRAEDTAVYYCARGFAIRYYGFDYWGQGTLVTVSS
VL: SYELTQPPSVSVSPGQTASITCSGDKLGDKYAYWYQQKPGQSPVLVIYQDSKRPSGIPERFSGSNSGNTATLTISGTQAEDEADYYCQVFTFPLVTTVFGGGTKLTVLG
notes: Human IgG1 with lambda light chain from the Ylanthia library
B2: MAB#2 IgG1 (antibody, V domains shown)
VH: QVQLVESGGGLVKPGGSLRLSCAASGFTFSDHYISWIRQAPGKGLEWVSYISSSGSTTYYAESVKGRFTISRDNAKNSLYLQMNSLRAEDTAVYYCARQSYYFLPYFDVWGQGTLVTVSS
VL: QSALTQPASVSGSPGQSITISCTGTSSDVGSYNLVSWYQQHPGKAPKLMIYEGSKRPSGVSNRFSGSKSGNTASLTISGLQAEDEADYYCASRGSRRVLYVFGGGTKLTVLG
notes: as for B1
B3: MAB#1 Fab (Fab, V domains shown)
VH: B1 VH
VL: B1 VL
notes: Purified monovalent Fab; also called MAB#1 (Fab format)
B4: MAB#2 Fab (Fab, V domains shown)
VH: B2 VH
VL: B2 VL
notes: Purified monovalent Fab; also called MAB#2 (Fab format)

Legend:
Human IL-17C [1] = biological target: T1, Human IL-17C; assay: SET (solution equilibrium titration, ECL based), apparent affinity, bivalent IgG
Text: (§1) Solution equilibrium titration (SET) was basically performed as described in the literature (Friquet et al., (1985) J. Immunol. Meth. 77: 305-19). In order to improve the sensitivity and accuracy of the SET method, it was transferred from classical ELISA to ECL based technology (Haenel et al. (2005) Anal Biochem. 339.1: 182-84).

Cynomolgus monkey IL-17C [2] = biological target: T2, Cynomolgus monkey IL-17C; assay: as above
Text: as §1

Mouse IL-17C [3] = biological target: T3, Mouse IL-17C; assay: as above
Text: as §1

Human IL-17C [4] = biological target: T1, Human IL-17C; assay: MSD receptor inhibition assay, IgG format: IgG pre-incubated with biotinylated human IL-17C, binding to coated mouse IL17RE/Fc
Method: (§2) Purified IL-17C specific Fabs or IgGs, respectively were tested for its capacity to inhibit the binding of IL-17C to its specific receptor IL-17RE. Therefore MA6000 384-well plates (Meso Scale Discovery, MSD) were coated with 30 μl of mouse IL17RE/Fc chimeric protein at 75 ng/ml in PBS at 4° C. overnight. The next day a serial antibody dilution (concentrations from 0.001 to 100 nM) were pre-incubated for 30 min at RT with an equal volume of biotinylated human/cynomolgus or mouse IL-17C to determine an IC₅₀ concentration for receptor binding inhibition. After blocking of plates for 1 h with 2.5% BSA in PBST, previously formed antibody-ligand complexes were added for 1 h to coated IL17RE/Fc and receptor binding was detected via Streptavidin-ECL using MSD Sector Imager.
(§3) Results are shown in rows 3 and 4 in Table 2 and Table 3 respectively.

Mouse IL-17C [5] = biological target: T3, Mouse IL-17C; assay: MSD receptor inhibition assay, IgG format: IgG pre-incubated with biotinylated mouse IL-17C, binding to coated mouse IL17RE/Fc
Method: as §2, §3

Human IL-17C [6] = biological target: T1, Human IL-17C; assay: cell-based or functional assay
Cynomolgus monkey IL-17C [7] = biological target: T2, Cynomolgus monkey IL-17C; assay: cell-based or functional assay
Mouse IL-17C [8] = biological target: T3, Mouse IL-17C; assay: cell-based or functional assay
Cynomolgus monkey IL-17C [9] = biological target: T2, Cynomolgus monkey IL-17C; assay: MSD receptor inhibition assay, IgG format: IgG pre-incubated with biotinylated cynomolgus IL-17C, binding to coated mouse IL17RE/Fc
Method: as §2, §3

Human IL-17C [10] = biological target: T1, Human IL-17C; assay: cell-based or functional assay; remark: listed apart in the source
Cynomolgus monkey IL-17C [11] = biological target: T2, Cynomolgus monkey IL-17C; assay: cell-based or functional assay
Mouse IL-17C [12] = biological target: T3, Mouse IL-17C; assay: cell-based or functional assay; remark: listed apart in the source
Cynomolgus monkey IL-17C [13] = biological target: T2, Cynomolgus monkey IL-17C; assay: MSD receptor inhibition assay, Fab format: Fab pre-incubated with biotinylated cynomolgus IL-17C, binding to coated mouse IL17RE/Fc
Method: as §2, §3

Human IL-17C [14] = biological target: T1, Human IL-17C; assay: SET (solution equilibrium titration, ECL based), monovalent affinity, Fab
Text: as §1

Cynomolgus monkey IL-17C [15] = biological target: T2, Cynomolgus monkey IL-17C; assay: as above
Text: as §1

Mouse IL-17C [16] = biological target: T3, Mouse IL-17C; assay: as above
Text: as §1

Mouse IL-17C [17] = biological target: T3, Mouse IL-17C; assay: MSD receptor inhibition assay, Fab format: Fab pre-incubated with biotinylated mouse IL-17C, binding to coated mouse IL17RE/Fc
Method: as §2

Human IL-17C [18] = biological target: T1, Human IL-17C; assay: MSD receptor inhibition assay, Fab format: Fab pre-incubated with biotinylated human IL-17C, binding to coated mouse IL17RE/Fc
Method: as §2, §3

Cynomolgus monkey IL-17C [19] = biological target: T2, Cynomolgus monkey IL-17C; assay: MSD receptor inhibition assay, Fab format: Fab pre-incubated with biotinylated cynomolgus IL-17C, binding to coated mouse IL17RE/Fc
Method: as §2

| Binder | EC50 (Human IL-17C [1]) | EC50 (Mouse IL-17C [3]) | IC50 (Human IL-17C [4]) | IC50 (Mouse IL-17C [5]) | IC50 (Cynomolgus monkey IL-17C [9]) | Kd (Human IL-17C [14]) | Kd (Cynomolgus monkey IL-17C [15]) | Kd (Mouse IL-17C [16]) | IC50 (Mouse IL-17C [17]) | IC50 (Human IL-17C [18]) | further results |
| --- | --- | --- | --- | --- | --- | --- | --- | --- | --- | --- | --- |
| B1 | 0.019 nM | 0.387 nM | 0.059 nM | 0.055 nM | 0.044 nM |  |  |  |  |  | EC50 (Cynomolgus monkey IL-17C [2]): 0.257 nM; Keratinocyte assay (IC50; DEFB4A gene expression in primary human keratinocytes stimulated with hIL-17C and TNFα) (Human IL-17C [6]): 0.319 nM; NF-κB reporter assay (IC50) (Human IL-17C [6]): 0.0313 nM; NF-κB reporter assay (IC50) (Cynomolgus monkey IL-17C [7]): 0.0128 nM; Keratinocyte assay (IC50; CSF3 gene expression in mouse primary keratinocytes) (Mouse IL-17C [8]): 0.112 nM; NF-κB reporter assay (IC50) (Mouse IL-17C [8]): 0.0476 nM |
| B2 | 0.016 nM | 0.323 nM | 0.058 nM | 0.048 nM | 0.057 nM |  |  |  |  |  | Keratinocyte assay (IC50; DEFB4A gene expression in primary human keratinocytes stimulated with hIL-17C and TNFα) (Human IL-17C [10]): 0.28 nM; NF-κB reporter assay (IC50) (Human IL-17C [10]): 0.0185 nM; NF-κB reporter assay (IC50) (Cynomolgus monkey IL-17C [11]): 0.0129 nM; Keratinocyte assay (IC50; CSF3 gene expression in mouse primary keratinocytes) (Mouse IL-17C [12]): 0.051 nM; NF-κB reporter assay (IC50) (Mouse IL-17C [12]): 0.0648 nM |
| B3 |  |  |  |  |  | 3.95 nM | 22 nM | 28 nM | 6 nM | 2.9 nM | IC50 (Cynomolgus monkey IL-17C [13]): 2.7 nM |
| B4 |  |  |  |  |  | 0.037 nM | 0.063 nM | 0.46 nM | 0.15 nM | 0.076 nM | IC50 (Cynomolgus monkey IL-17C [19]): 0.05 nM |
